# Results from patent US20160038571A1.
# Tests used:
# calcineurin (CNA/B) = calcineurin (CNA/B) (UniProt Q08209); assay: ITC
# [1] = target: pre-formed RCAN1^128-164:calcineurin complex, Q08209; assay: ITC, peptide titrated into the pre-formed RCAN1^128-164:calcineurin complex
fold decrease in Kd (against unmutated RCAN1) (calcineurin (CNA/B)),Kd (calcineurin (CNA/B)),Molecule,further results
–,–,RCAN1 construct with the PxIxIT (SEQ ID NO: 9) motif deleted,fold decrease in binding affinity (calcineurin (CNA/B)): 220 fold
2.5 fold,–,RCAN1 mutant HLAPP (SEQ ID NO: 16) →AAAAA (SEQ ID NO: 17) (from UniProt P53805 56-252),–
220 fold,–,RCAN1 mutant PSVVVH (SEQ ID NO: 13) →ASAVAA (SEQ ID NO: 18) (from UniProt P53805 56-252),–
–,10 nM,RCAN1^89-197 (from UniProt O35847 89-142),–
–,300 nM,RCAN1^128-192 (from UniProt P53805 183-247),–
–,–,RPKPKIIQTRRPEYT (modifications not checked) [peptide consisting of RCAN1^178-192 that includes the TxxP (SEQ ID NO: 11) site],Kd [1]: 15000 nM
